Assay results from the supplement of paper PMC6757056.
± gives the standard deviation of the averaged measurements.

B1: library; a variant is named by its letters at N, in order (parent)
chain: GCUGUCACCGGUGUAUUACCCUAGUGGUCGACCGGUCUGAUGAGUCUNNNNNNAGACGAAACAGC

What was measured:
[1] = variants of: B1; assay: normalized RNA/DNA level with ligand (relative to sTRSVctl = 100) (log10 (% of sTRSVctl)); ligand: hypoxanthine (xanthine aptamer); higher = less ribozyme self-cleavage, higher mRNA level; settings: ligand concentration (+) RNA-Seq: 5 mM, HEK293T, reporter: mCherry (pCS4076), ligand present: yes
Outline: (§1)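 Only sequences with at least 100 DNA reads were analyzed, from HEK293T cells transfected with 4 µg per 6-well well of ribozyme switch library plasmids 72 h before RNA extraction with EDTA. Any ligand was added 1 h before transfection. RNA level was defined as RNA over DNA reads, normalized to a spiked-in non-cleaving sequence or to the top sequences, then scaled and log-transformed. The top set was 25 sequences, and the scaling was ×100 followed by log10.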

[2] = variants of: B1; assay: normalized RNA/DNA level without ligand (relative to sTRSVctl = 100) (log10 (% of sTRSVctl)); ligand: hypoxanthine (xanthine aptamer); higher = less ribozyme self-cleavage, higher mRNA level; settings: HEK293T, reporter: mCherry (pCS4076), ligand present: no
Outline: as §1

Variant	normalized RNA/DNA level with ligand (log10) [1]	normalized RNA/DNA level without ligand (log10) [2]
GCUGUCACCGGUGUAUUACCCUAGUGGUCGACCGGUCUGAUGAGUCUCCGGGGAGACGAAACAGC [CCGGGG]	1.83 ± 0.057	1.34 ± 0.084
GCUGUCACCGGUGUAUUACCCUAGUGGUCGACCGGUCUGAUGAGUCUCCGGGUAGACGAAACAGC [CCGGGU]	2.04 ± 0.054	1.93 ± 0.15
GCUGUCACCGGUGUAUUACCCUAGUGGUCGACCGGUCUGAUGAGUCUCCGGAUAGACGAAACAGC [CCGGAU]	1.9742 ± 0.0018	1.777 ± 0.012
GCUGUCACCGGUGUAUUACCCUAGUGGUCGACCGGUCUGAUGAGUCUGCGCUAAGACGAAACAGC [GCGCUA]	1.88 ± 0.067	1.68 ± 0.031
GCUGUCACCGGUGUAUUACCCUAGUGGUCGACCGGUCUGAUGAGUCUGCGCUUAGACGAAACAGC [GCGCUU]	1.96 ± 0.065	1.76 ± 0.046
GCUGUCACCGGUGUAUUACCCUAGUGGUCGACCGGUCUGAUGAGUCUGCGCUGAGACGAAACAGC [GCGCUG]	1.86 ± 0.028	1.36 ± 0.03
GCUGUCACCGGUGUAUUACCCUAGUGGUCGACCGGUCUGAUGAGUCUGCGCUCAGACGAAACAGC [GCGCUC]	1.919 ± 0.015	1.64 ± 0.052
GCUGUCACCGGUGUAUUACCCUAGUGGUCGACCGGUCUGAUGAGUCUUCGGGGAGACGAAACAGC [UCGGGG]	1.98 ± 0.05	1.69 ± 0.035
GCUGUCACCGGUGUAUUACCCUAGUGGUCGACCGGUCUGAUGAGUCUUCGGGUAGACGAAACAGC [UCGGGU]	1.81 ± 0.075	1.55 ± 0.13
GCUGUCACCGGUGUAUUACCCUAGUGGUCGACCGGUCUGAUGAGUCUUCGGGCAGACGAAACAGC [UCGGGC]	2.021 ± 0.017	1.99 ± 0.0053
GCUGUCACCGGUGUAUUACCCUAGUGGUCGACCGGUCUGAUGAGUCUCCGCUUAGACGAAACAGC [CCGCUU]	1.96 ± 0.051	1.887 ± 0.0021
GCUGUCACCGGUGUAUUACCCUAGUGGUCGACCGGUCUGAUGAGUCUCCGCUCAGACGAAACAGC [CCGCUC]	2.005 ± 0.0034	1.963 ± 0.019
GCUGUCACCGGUGUAUUACCCUAGUGGUCGACCGGUCUGAUGAGUCUUCGGUGAGACGAAACAGC [UCGGUG]	1.9763 ± 0.0017	1.67 ± 0.028
GCUGUCACCGGUGUAUUACCCUAGUGGUCGACCGGUCUGAUGAGUCUUCGGUCAGACGAAACAGC [UCGGUC]	2.034 ± 0.0059	1.969 ± 0.012
GCUGUCACCGGUGUAUUACCCUAGUGGUCGACCGGUCUGAUGAGUCUUCGGAUAGACGAAACAGC [UCGGAU]	1.86 ± 0.036	1.3978 ± 0.00098
GCUGUCACCGGUGUAUUACCCUAGUGGUCGACCGGUCUGAUGAGUCUUCGGACAGACGAAACAGC [UCGGAC]	1.981 ± 0.002	1.877 ± 0.012
GCUGUCACCGGUGUAUUACCCUAGUGGUCGACCGGUCUGAUGAGUCUUCGGAAAGACGAAACAGC [UCGGAA]	1.84 ± 0.043	1.31 ± 0.017
GCUGUCACCGGUGUAUUACCCUAGUGGUCGACCGGUCUGAUGAGUCUGCGGCUAGACGAAACAGC [GCGGCU]	1.971 ± 0.0061	1.84 ± 0.04
GCUGUCACCGGUGUAUUACCCUAGUGGUCGACCGGUCUGAUGAGUCUGCGGCCAGACGAAACAGC [GCGGCC]	2 ± 0.046	1.76 ± 0.076
GCUGUCACCGGUGUAUUACCCUAGUGGUCGACCGGUCUGAUGAGUCUGCGGCAAGACGAAACAGC [GCGGCA]	1.94 ± 0.055	1.7 ± 0.052
GCUGUCACCGGUGUAUUACCCUAGUGGUCGACCGGUCUGAUGAGUCUACGGCAAGACGAAACAGC [ACGGCA]	1.902 ± 0.019	1.702 ± 0.008
